The results in this text go back to paper PMC7518326 (2020).

In this assay the target is T1, BBI (Bcl9 peptide) 351-357 (Homo sapiens, UniProt O00512).
T1 chain: LSQEQLE

B1: β-catenin (protein)
chain: ATQADLMELDMAMEPDRKAAVSHWQQQSYLDSGIHSGATTTAPSLSGKGNPEEEDVDTSQVLYEWEQGFSQSFTQEQVADIDGQYAMTRAQRVRAAMFPETLDEGMQIPSTQFDAAHPTNVQRLAEPSQMLKHAVVNLINYQDDAELATRAIPELTKLLNDEDQVVVNKAAVMVHQLSKKEASRHAIMRSPQMVSAIVRTMQNTNDVETARCTAGTLHNLSHHREGLLAIFKSGGIPALVKMLGSPVDSVLFYAITTLHNLLLHQEGAKMAVRLAGGLQKMVALLNKTNVKFLAITTDCLQILAYGNQESKLIILASGGPQALVNIMRTYTYEKLLWTTSRVLKVLSVCSSNKPAIVEAGGMQALGLHLTDPSQRLVQNCLWTLRNLSDAATKQEGMEGLLGTLVQLLGSDDINVVTCAAGILSNLTCNNYKNKMMVCQVGGIEALVRTVLRAGDREDITEPAICALRHLTSRHQEAEMAQNAVRLHYGLPVVVKLLHPPSHWPLIKATVGLIRNLALCPANHAPLREQGAIPRLVQLLVRAHQDTQRRTSMGGTQQQFVEGVRMEEIVEGCTGALHILARDVHNRIVIRGLNTIPLFVQLLYSPIENIQRVAAGVLCELAQDKEAAEAIEAEGATAPLTELLHSRNEGVATYAAAVLFRMSEDKPQDYKKRLSVELTSSLFRTEPMAWNETADLGLDIGAQGEPLGYRQDDPSYRSFHSGGYGQDALGMDPMMEHEMGGHHPGADYPVDGLPDLGHAQDLMDGLPPGDSNQLAWFDTDL
Take B1: the Kd is approximately 1 µM.

What is called Kd is the concentration at which binding is half-saturated.
